How the values were obtained:
Conditions in all cases: both partners purified
Sepharose 4B-coupled CaM = target: T1, Sepharose 4B-coupled CaM (UniProt P0DP23 1-149, coupled to Sepharose 4B); assay: pull-down; purified GST-JMY WH2#1 or GST with immobilised CaM; IP buffer with 150 mM NaCl and 2 µM Ca2+ (1 mM EGTA for comparison); immunoblot
T1 construct: calmodulin (CaM), bought coupled to Sepharose 4B; also called immobilized CaM; CaM matrix; source: bought: GE Healthcare (coupled to Sepharose 4B)

untagged recombinant CaM = target: T2, untagged recombinant CaM (UniProt P0DP23 1-149); assay: pull-down; in vitro reconstitution: GST-JMY WH2#1 immobilised, untagged CaM and rabbit skeletal muscle α-actin together; 10 mM HEPES pH 7.4, 250 mM NaCl, 0.1 mM MgCl2, 1% Triton X-100, with 1 mM EGTA or 20 µM Ca2+; quantitative fluorescence immunoblot
T2 construct: calmodulin (CaM), subcloned from Mito-mCherry-CaM into pGEX-6P; A few vector residues probably remain after PreScission cleavage; also called calmodulin; source: E. coli BL21, purified as GST-CaM (pGEX-6P), GST removed with PreScission Protease

[1] = target: rabbit skeletal muscle actin (rabbit, UniProt P68135 1-377); assay: as above

Measured: binding result

B1: GST-JMY WH2#1 (domain or fragment)
chain: GNERSIPKSASAPAAHLFDSSQLVSARKKLRKTVEGLQRRRVS
notes: Mus musculus JMY, NP_067285.2, residues 841-883 (subcloned from GFP-JMY WH2#1 into pGEX-4T1); pGEX-4T1 by surmise puts GST at the N-terminus; also called first WH2 domain of JMY and flanking regions; source: E. coli BL21, purified (glutathione sepharose)
binds: Sepharose 4B-coupled CaM | untagged recombinant CaM | [1]
